# Test results from article PMC9218434.
# Molecular target: nucleosome core particle (NCP) of human histones H2A, H2B, H3.1 and H4 with the 145 base-pair Widom 601 DNA, P04908;P06899;P68431;P62805
# Experiment: electrophoretic mobility shift assay
# Settings: non-denaturing 4% polyacrylamide gel, SYBR Gold staining, n = 3, read off a plot
"response (0.4 µM p300(BRPHΔAILZ), parent: est. 48)","response (0.8 µM p300(BRPHΔAILZ), parent: est. 71)","response (1.2 µM p300(BRPHΔAILZ), parent: est. 82)","response (0.4 µM p300(BRPHΔAILZ), parent: est. 41)","response (0.8 µM p300(BRPHΔAILZ), parent: est. 62)","response (1.2 µM p300(BRPHΔAILZ), parent: est. 75)",Substance
2.5%,6%,8.5%,,,,"p300(BRPH_(ΔAIL)Z), catalytic core of human p300 (aa 1035-1720, Y1467F, autoinhibition loop replaced by a linker) (from UniProt Q09472) K1456A; K1459A; K1461A; R1462A"
,,,3.3%,8%,13%,"p300(BRPH_(ΔAIL)Z), catalytic core of human p300 (aa 1035-1720, Y1467F, autoinhibition loop replaced by a linker) (from UniProt Q09472) R1137A"
